Patent publication US20090202508A1, “NEGATIVE REGULATION OF HYPOXIA INDUCIBLE FACTOR 1 BY OS-9” (THE JOHNS HOPKINS UNIVERSITY, priority 2004, published 2009)

Experiments:
[1] = target: T1, PHD2 (Homo sapiens, UniProt Q9GZT9); experiment: Prolyl hydroxylation assay / in vitro VHL binding assay with GST-HIF-1α (531-826); type: biochemical
T1 construct: expressed in transfected cells; host or cells: 293 cells (whole cell lysate used as the enzyme source)
Description: [^35S]methionine-labeled VHL protein was synthesized in vitro and GST-HIF-1α (531-826) fusion protein (GstA) was expressed in E. coli. 293 cells were transfected with empty, PHD2, or OS-9 expression vector. After 24 h, cells were washed twice with cold hypotonic extraction buffer containing 20 mM Tris (pH 7.5), 5 mM KCl, 1.5 mM MgCl2, 1 mM dithiothreitol and lysed with hypotonic extraction buffer in a Dounce homogenizer. The cell extract was centrifuged at 10,000×g for 10 min at 4° C., and the supernatant was stored in aliquots at −70° C. GstA (4 μg) was preincubated with whole cell lysate (50 μg) in a total volume of 50 μl with PBS-T at 30° C. for 10 min with or without 1 mM dimethyloxalyl glycine (DMOG). The reaction was terminated by addition of desferrioxamine to 1 mM. One aliquot (0.5 μg of GstA) was used for immunoblot assay using anti-hydroxyproline-564 HIF-1α antibody (Chan et al., 2002). The remainder ([…] of GstA) was used for in vitro VHL binding assay.
For in vitro VHL binding assay, preincubated GstA and 5 μl of [^35S]methionine-labeled VHL protein were mixed in a total volume of 300 μl of PBS-T with 1 mM desferrioxamine and incubated at 4° C. for 90 min. 20 ul of glutathione-Sepharose-4B beads (Amersham Biosciences) was added and incubated for 30 min with rotation. Beads were washed three times with PBS-T. Proteins were eluted in Laemmli sample buffer, fractionated by SDS-PAGE, and detected by autoradiography. For PHD binding assay, […] of GST-HIF-1α was preincubated with 50 μg of -whole cell lysate in a total volume of 50 μl with PBS-T at 30° C. for 10 min with or without 1 mM DMOG. The reaction was terminated by addition of desferrioxamine to 1 mM, 20 μl of glutathione-Sepharose-4B beads were added and incubated for 30 min. The beads were washed three times with PBS-T. Bound protein was eluted in Laemmli sample buffer, fractionated by SDS-PAGE, and subjected to immunoblot assay using antibodies against PHD2 (Novus Biologicals Inc.) or GST (Amersham).

[2] = test system: HIF-1; experiment: HIF-1-dependent p2.1 luciferase reporter assay; type: cell-based, human
Description: (§1) 293 or Hep3B cells were seeded onto 24-well plates at 8×10^4 cells per well of a 24-well plate. The following day, the cells were transfected with plasmid DNAs using Fugene-6 (Roche) for 293 and Lipofectamine Plus (Invitrogen) for Hep3B cells. After 24 h, the cells were exposed to 20% or 1% O2 for 24 h. Cells were lysed, and the luciferase activities were determined by multi-well luminescence reader (PerkinElmer), using the Dual-Luciferase Reporter Assay System (Promega). For p2.1 reporter assay, cells were co-transfected with 15 ng of control reporter pSV-Renilla, 135 ng of HIF-1 reporter p2.1, and expression vector encoding HA-OS-9, HIF-1α, or empty vector. Unless indicated otherwise, 200 ng of HIF-1α, 400 ng of HA-OS-9, 1 ng of PHD2, or 1 ng of HIF-1α triple mutant P402A/P564A/N803A (HIF-1α TM) expression vector was used for co-transfection. For pGalA reporter assays, Hep3B cells were co-transfected with 12.5 ng of pSV-Renilla, reporter 200 ng of pG5ElbLuc, 100 ng of expression vector encoding the GAL4 DNA-binding domain alone or fused to HIF-1α residues 531-826 (Jiang et al. 1997) and empty vector or vector encoding HA-OS-9. For immunoblot assays, 293 cells were seeded at 3×10^6 cells per 10-cm plate. The following day, the cells were co-transfected with expression vectors using Fugene-6. After 24 h, the cells were exposed to 20% or 1% O2 with or without MG132 (10 μM) for 8 h and lysed in 200 μl of lysis buffer containing 50 mM Tris-Cl (pH 8.0), 150 mM NaCl, 5 mM EDTA, 0.1% SDS, 1% NP-40, 0.5% sodium deoxycholate, Complete protease inhibitor cocktail (Roche), sodium orthovanadate, and sodium vanadate (Sigma).

[3] = test system: HIF-1α transactivation domains (residues 531-826); experiment: GAL4-dependent reporter (pGalA) transactivation assay; type: cell-based, human; conditions: co-transfection of OS-9 expression vector; FIG. 3B
Description: as §1, with “After 24 h, the cells were exposed to 20% or 1% O2 with or without MG132 (10 μM) for 8 h and lysed in 200 μl of lysis buffer containing 50 mM Tris-Cl (pH 8.0), 150 mM NaCl, 5 mM EDTA, 0.1% SDS, 1% NP-40, 0.5% sodium deoxycholate, Complete protease inhibitor cocktail (Roche), sodium orthovanadate, and sodium vanadate (Sigma).” left out

[4] = target: T2, PHD3 (Homo sapiens, UniProt Q9H6Z9); experiment: Co-immunoprecipitation of HA-OS-9 with PHD3 in 293 cells; type: cell-based; conditions: anti-HA immunoprecipitates, immunoblot; FIG. 5
T2 construct: expressed in transfected cells; host or cells: 293 cells
T2 sequence (Q9H6Z9 whole entry): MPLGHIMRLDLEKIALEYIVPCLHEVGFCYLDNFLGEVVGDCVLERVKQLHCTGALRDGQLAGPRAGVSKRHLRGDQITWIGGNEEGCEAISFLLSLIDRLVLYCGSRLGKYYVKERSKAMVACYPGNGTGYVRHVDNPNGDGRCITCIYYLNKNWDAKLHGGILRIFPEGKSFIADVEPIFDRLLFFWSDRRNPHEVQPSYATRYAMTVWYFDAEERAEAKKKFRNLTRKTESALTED
Description: 293 cells (3×10^6 cells per […] plate) were transfected with Lipofectamine Plus and a total of 10 μg of expression vectors. After 24 h, cells were lysed with PBS/0.1% Tween-20. 400 μg of whole cell lysate (brought to a final volume of 200 μl with lysis buffer) were immunoprecipitated using anti-HA affinity matrix (Roche) followed by immunoblot assay using antibody against HIF-1α (Zhong et al. 1999), PHD 1-3 (Novus Biologicals Inc.), or HA (Roche).

[5] = 293 cells, co-transfection of OS-9, FIG. 4B

T1 sequence (Q9GZT9 whole entry): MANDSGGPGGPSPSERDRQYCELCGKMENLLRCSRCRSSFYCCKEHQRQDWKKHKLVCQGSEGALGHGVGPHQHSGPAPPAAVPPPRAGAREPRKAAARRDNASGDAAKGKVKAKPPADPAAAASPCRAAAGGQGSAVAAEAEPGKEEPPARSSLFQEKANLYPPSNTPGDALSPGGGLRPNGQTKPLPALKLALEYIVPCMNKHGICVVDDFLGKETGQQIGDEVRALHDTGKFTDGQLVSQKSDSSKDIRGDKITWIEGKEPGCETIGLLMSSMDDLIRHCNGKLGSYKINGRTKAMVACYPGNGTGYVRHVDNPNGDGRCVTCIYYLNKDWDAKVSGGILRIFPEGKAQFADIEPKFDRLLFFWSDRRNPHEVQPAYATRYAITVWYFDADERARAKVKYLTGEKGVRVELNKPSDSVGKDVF

B1: OS-9: human OS-9 protein (667-residue isoform), HA-tagged, from expression vector or in vitro-translated (protein)
chain: MAAETLLSSLLGLLLLGLLLPASLTGGVGSLNLEELSEMRYGIEILPLPVMGGQSQSSDVVIVSSKYKQRYECRLPAGAIHFQREREEETPAYQGPGIPELLSPMRDAPCLLKTKDWWTYEFCYGRHIQQYHMEDSEIKGEVLYLGYYQSAFDWDDETAKASKQHRLKRYHSQTYGNGSKCDLNGRPREAEVRFLCDEGAGISGDYIDRVDEPLSCSYVLTIRTPRLCPHPLLRPPPSAAPQAILCHPSLQPEEYMAYVQRQADSKQYGDKIIEELQDLGPQVWSETKSGVAPQKMAGASPTKDDSKDSDFWKMLNEPEDQAPGGEEVPAEEQDPSPEAADSASGAPNDFQNNVQVKVIRSPADLIRFIEELKGGTKKGKPNIGQEQPVDDAAEVPQREPEKERGDPERQREMEEEEDEDEDEDEDEDERQLLGEFEKELEGILLPSDRDRLRSEVKAGMERELENIIQETEKELDPDGLKKESERDRAMLALTSTLNKLIKRLEEKQSPELVKKHKKKRVVPKKPPPSPQPTEEDPEHRVRVRVTKLRLGGPNQDLTVLEMKRENPQLKQIEGLVKELLEREGLTAAGKIEIKIVRPWAEGTEEGARWLTDEDTRNLKEIFFNILVPGAEEAQKERQRQKELESNYRRVWGSPGGEGTGDLDEFDF
modifications: left off: small tags and cut ends
notes: human OS-9 protein (667-residue isoform), HA-tagged, from expression vector or in vitro-translated
For B1, the “prolyl hydroxylation of GST-HIF-1α (531-826) (hydroxyproline at residue 564)” value ([1]; immunoblot with anti-Hyp-564 antibody, FIG. 7A middle panel) was “increase”, the “binding of VHL to hydroxylated GST-HIF-1α (531-826)” value ([1]; increasing amounts of in vitro-translated OS-9 added after hydroxylation, desferrioxamine present, FIG. 6C) was “no effect” and the “VHL binding to GST-HIF-1α (531-826)” value ([1]; lysates from cells co-transfected with PHD2 and OS-9 versus PHD2 alone, FIG. 7A top panel) was “further increased”. The “Induction of p2.1 reporter activity by HIF-1α” value [2, 5] was “significantly inhibited”, the “reporter gene transcription mediated by HIF-1 heterodimers containing HIF-1α-TM” value [2, 5] was “neither OS-9 nor PHD2 inhibited” and the “Reporter gene activity induced by hypoxia and/or HIF-1α expression vector” value ([2]; co-transfection of OS-9 expression vector, Hep3B cells, 20% or 1% O2, FIG. 3A) was “dramatically inhibited”. For the same molecule, the “transactivation of GAL4-dependent reporter by pGalA” value [3] was “no significant inhibitory effect” and the “interaction of OS-9 with PHD3” value [4] was “interaction”.
